Results published in paper PMC8887654 (ACS infectious diseases, 2022).
Where “and” joins values, the source holds several entries; their conditions need not be identical. Equal entries are not always repeated.

Experiments:
MHV PLP2 = settings: cited from earlier work
SARS-2 PLpro = settings: cited from earlier work
SARS PLpro = settings: cited from earlier work
BtSCoV-Rf1.2004 PLpro = type: biochemical
MERS PLpro = settings: cited from earlier work
BEAS-2B cells = settings: human
subgroup 2b PLpros = assay: PLpro inhibition IC50, text summary over all three PLpros; type: biochemical; settings: read-out: IC50 values; text summary for the most potent inhibitors
RPTEC = settings: human

Row | Molecule | Kcat (MHV PLP2) [s⁻¹] | Km (MHV PLP2) [µM] | Kcat (SARS-2 PLpro) [s⁻¹] | Km (SARS-2 PLpro) [µM] | Kcat (SARS PLpro) | Km (SARS PLpro) [µM] | Kcat (BtSCoV-Rf1.2004 PLpro) [s⁻¹] | Km (BtSCoV-Rf1.2004 PLpro) [µM] | Kcat (MERS PLpro) [s⁻¹] | Km (MERS PLpro) [µM] | observed rate (no maximum turnover calculable) (BtSCoV-Rf1.2004 PLpro) [min⁻¹] | CC50 relative to IC50 (BEAS-2B cells) | IC50 (subgroup 2b PLpros) [µM] | CC50 relative to IC50 (RPTEC)
1 | Ubiquitin–7-amino-4-methylcourmarin [Ub-AMC] | 0.83 ± 0.0483 | 1.3 ± 0.2 | 0.167 ± 0.013 | 7.9 ± 1.4 | 1.26 ± 0.135 s⁻¹ | 50.6 ± 7.4 | 0.232 ± 0.0067 | 14.3 ± 0.9 | 0.313 ± 0.02 | 14.3 ± 2 |  |  |  | 
2 | human ISG15-7-amino-4-methylcourmarin [ISG15-AMC] |  |  | 0.667 ± 0.03 | 3.9 ± 0.5 | 7.27 s⁻¹ and 7.27 ± 0.667 s⁻¹ | 15.1 ± 2.4 |  |  | 0.543 ± 0.03 | 3.3 ± 0.5 | 595 |  |  | 
3 | Cc1ccc(N)cc1C(=O)N[C@H](C)c1cccc2ccccc12 [GRL0617, 5-Amino-2-methyl-N-[(R)-1-(1-naphthyl)ethyl]benzamide] |  |  |  |  |  |  |  |  |  |  |  | more than five times the IC50 | < 10 | more than five times the IC50
